In a protein production outcome set (Wang et al. 2014):

Test: label from the status in PepcDB records
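Note: failed if final PepcDB status was selected cloned or expressed and not failed if soluble or beyond.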

Sequence	protein production
PFCAMENQVLVIRIKIPNSGAVDWTVHSGPQLLFRDVLDVIGQVLPEATTTAFEYEDEDGDRITVRSDEEMKAMLSYYYSTVMEQQVNGQLIEPLQIFPR	not failed
MLIILFLIQMILIVKALGLKGLFIFLALIFGLFVLCKVSLKVKLPRNKYSKVTWEDMPWLYDGVARMANKARISTPNIYIEDNPIPTAYSFQNSIVLSAGLLEILNEEEVLAVAAHEIGHIKNGDTVLFPLLRYGKYIMGIITAIIVIFATGFITKVVSFLVFVIYAFSLLKFLRKREFLADRVALQIAEVPYALKSALEELKFYEEALKTKEMPLPTIQPSIRREEKREPQIFPLPSTHPSYDERIARIIAIVEMYRRLEFLN	failed
MRLFAINAGNFKLDGGAMFGVVPKSIWNKLNPADSNNLCTWATRCLLIENGKQLVLIDTGLGDKQDESFFRHYYRDTPQTWDTLLKPYGFHSSDITDVVLTHLHFDHVGGALEKKGDKIVPTFSNARYWSNTRHWDWAVEPNPREKASFLKDNLFPLQESGQLYFVDTQNLPFEWMDFIFVDGHTEQQMLPLITTPAEKKILYAADLLPSAGHIPMPYIMSYDVRPLVSMQEKERVFNQVLAEDWTVFLEHDLSNACISLQQTEKGIRLNNVFQISDFNLEHHHHHH	failed
MLENIRIVLIETSHSGNIGSAARAMKTMGLTQLCLVSPKSVDEQSYALSAGAENIVKNARVVDSFDEAVDDCPLVIGTSARLRHLQNTLIEPRECAEKVVAYKGKIAIVFGRERIGLTNEELLKCHYHLNIPANPDYSSLNLAMAVQLVSYELRMAFLVQNNKKNSLSLIEKNYPTTDQLAYFFDYTERIYQSLGFIQNQGVMRKLKRLYYRAKLEKNELNILNGMLSAVEKRIDLTKEDN	not failed
MTAAIRRTVTFPGVSMARLKSMLGAYNGHLKQIEQRLDVQITHRGDAFYIDGDIDAVERAESLLQRLYNESETSDQISADILHLMIQGSQTDRELMDDSEQEHTGLDNVWLQTPKGRINPRGTNQKRYVQRILQSDISFGIGPAGTGKTYLAVAAAVDMLERNEIQRILLVRPAVEAGEKLGFLPGDLAQKIDPYLRPLYDALYEMLGFEKVAKLIERQVIEVAPLAYMRGRTLNHSFVILDEAQNTTPEQMKMFLTRLGFGSRAVITGDITQVDLPRGQQSGLAHALRVLEPIKEIHITRFHSRDVVRHQLVQKIVEAYEGWDSEQNRLSAEARAERKARQEALMSEHDAAADAQHQEA	failed
MAKNAPRFVCQACGAVYPRWMGRCEACGEWNSIAEEAPAEALPKGQTGGRGGQRLSFVSLEGVGAPPPRLLTGIPELDRVAGGGLVAGSALLIGGDPGIGKSTLLLQAVAGLARGGARSVYISGEEAIDQVRLRALRLGLEKAPVDLAAATSVRDIVATLDSGEPPDVVVIDSIQTMYLDTLDSAPGTVAQVRAGSHELIRLAKRRGFVLFLVGHVTKEGQMAGPRVMEHMVDAVIYFEGERGHPFRILRAVKNRFGATDEIGVFEMSDAGLSEVPNPSALFLAERRGNVTGSCVFAGMEGTRPMLVEIQALVGPSAPGSARRAVVGWDGGRLAMVMAVLETRCGLALGGNDVYLNVAGGLRIGEPAADLAVAAALVSSFSGVPVPPDMVVFGEIGLSGEIRAVAHGDTRLKEAAKLGFDQALMPARPRDSGKRGGPGVKEGLRMREIGHLQDLVALLAPPENAGQGQRLEHHHHHH	not failed
MYGEGDFYTIKSKRDYEFYLEADRLALGKNCKKPRLIGDDIWKFQRLLRQAEYYSNCQNSLLHKLYLKYILFRFHRMSIRLGFSIPINVFGPGLCIAHRGTIVVNKGARVGENCRIHACTNIGSGRDNIFLAPKIGNGVYIGPGAKIFGSVEIADNIAIGANSVVNRSFYERGISIAGVPAKKISNKGSDGMVIAATKTVSVPVSQETILEHHHHHH	not failed
MMAPPSQVQGRLSSSMNKSLALLTVTLLLGGCQSLIHKTPDGTPPVEDTAVETKAKPEKYGSFSEDSLYSLLVAELAGQRNRFDIALSNYVVQAQKTRDPGVSERAFRIAEYLGADQEALDTSLLWARSAPDNLDAQRAAAIQLARAGRYEESMVYMEKVLNGQGDTHFDFLALSAAETDPDTRAGLLQSFDHLLKKYPNNGQLLFGKALLLQQDGRPDEALTLLEDNSASRHEVAPLLLRSRLLQSMKRSDEALPLLKAGIKEHPDDKRVRLAYARLLVEQNRLDDAKAEFAGLVQQFPDDDDLRFSLALVCLEAQAWDEARIYLEELVERDSHVDAAHFNLGRLAEEQKDTARALDEYAQVGPGNDFLPAQLRQTDVLLKAGRVDEAAQRLDKARSEQPDYAIQLYLIEAEALSNNDQQEKAWQAIQEGLKQYPEDLNLLYTRSMLAEKRNDLAQMEKDLRFVIAREPDNAMALNALGYTLADRTTRYGEARELILKAHKLNPDDPAILDSMGWINYRQGKLADAERYLRQALQRYPDHEVAAHLGEVLWAQGRQGDARAIWREYLDKQPDSDVLRRTIKRLTGAETP	failed
MKVKKLVGTLLATALFFSALTATYYYQKYQALLANNVENTAKEALHQLAYTGREYNNIQDQIETISDLLGHSQSLYDYLREPSKANLTILENMWSSVARNQKLYKQIRFLDTSGTEKVRIKYDFKTSIAGPSLILRDKSAREYFKYAQSLDNEQISAWGIELERDKGELVYPLSPSLRILMPISVNDVRQGYLVLNVDIEYLSSLLNYSPVRDFHIELVKHKGFYIASPDESRLYGDIIPERSQFNFSNMYPDIWPRVVSEQAGYSYSGEHLIAFSSIKFVSNEPLHLIIDLSNEQLSKRATRDINDLIQESLFVLSLVLVFTLPITALALHYRRHSVESKLARAALDGMTAVMISDASLRIIMVNQEFENMMGYSTEQVKGSNAHSLILLPEDLEETLNIWNKLGRENVWEGEVRCRTQLNHVFTAIMRIQANLTKSGKISYYITSLVDISERKALEEQLRNLSEKDGLTGLWNRRKFEEQLTHYANIVERYPDTPTTCLALFDIDHFKRINDERGHDEGDKVICSVAETLLREVRTTDFVSRVGGEEFAVIMPHTTVKEAEVVLNRLRVAVQLRSNMTVTVSAGYSDLTADRTRSYKCADIALYESKSAGRNCVSLCHSIDDIA	failed
MMVETATVVQYQNGKALVRCSVKTACGNCGAKADCGTQLLSSLVKERVPHFELSVNMPLVAGDMVKIGLPEQTLLWSIFWIYVVPLMVLIGSAVGFTQLFANELVVVFMMFICTSMTFFSIKKIIDKKQLSQLNPIFLGRVE	failed
MSMQEMVTISIVTYNSRYIFNVLDQLKAELGTDSIYDIHIYDNHSETAYLEKLTTYEPFITIHRAEENQGFGHGHNQVLFNASTKYAIIFNPDVLVTKDVLDRLLNRIKIDKNIAVVSPKVLNEDGTTQYLVRQKLDVFDYMLRFIPFQFVKKIFDKRLSIYECRDLSDTETTDIKMGSGCFMLIDREKFVEIGGFDERFFMYFEDNDLCLRFGKAGYRILYTPFETVVHMYEKGAHKSRKLFKIFMQSMGKFFNKWGWRFFLEHHHHHH	not failed
MGHHHHHHSHMAFPSDATAEQGPILTKHGKNPVMELNEKRRGLKYELISETGGSHDKRFVMEVEVDGQKFQGAGSNKKVAKAYAALAALEKLFPDTPLALDANK	failed
YRATKLWNEVTTSFRAGMPLRKHRQHFKKYGNCFTAGEAVDWLYDLLRNNSNFGPEVTRQQTIQLLRKFLKNHVIEDIKGRWGSENVDDNNQLFRFPA	not failed
MLIEIPNVFSKQEVSHLREQLDARRWIDGNQTSGAMATTRKRNQQLDKDDPVAVALGQQIMDRLLAHPQFVSAALPLQFYPPLFNRYQGGETFGYHIDNAIRSTPDGMIRTDLSATLFLSEPENYQGGELVIQDTYGQQSIKLSAGSLVLYPSSSLHQVTPVLSGERTAAFMWLQSMVRDEGQRRLLFQLDQSIQSLTAQTAAEQELFNLSGVYHNLLRRWSEL	not failed
MNSASTTVPTDLTNERLPSGRLLALGLQHVLVMYAGTVAVPLIVGGALKLPKDQLAFLINADLFAAGLATLIQAFGFWKFGIRMPVMMGVTFASVAPMIAIGNDPNVGLLGIYGAVIASGIFGILIAPMMGRMLGLFPPVVTGTVITLIGVSLMRVGINWAGGGQPTTRAVIDGVAKEVPNLAYGDLSNLAIAGLVLAVILLLSKYGRGLVANCAVLLGIIIGTLVAMALGKVSFEGLNEASYVAVITPLHFGIPKFELTAILSMCIVMLITLVESTGMFLALSDITGRKLSRDDLTAGLRADGLGTVIGGIFNTFPYTSFSQNVGLVTVTGVRSRYVAAAGGLILIAFGLFPKMAHVVASVPQFVLGGAGIVMFGMVAATGIRILGSCDFNRNRHNLFIVAISIGFGMIPTLSPTLFQYLPKWTDPFTHSGIVLGTIVAVALNLFFNGIQSAEEAMRNAAANSHGTE	failed
MNSVGFYGKLAGRGDFVSRGLPNTFVEPWDAWLASGMRASQDELGAAWLDAYLTSPLWRFAIAPGLLGGEAVTGVVMPSIDRVGRYFPLTVACLLPANADLGGLVGGDDGWFEQVESLLLSTLEPEAEVEAFEQAVAQLPAPPCGPRIEQSLISGNLLRSEAVTPAQRLAALAQHACDGASHWWGRGSARISAGLMRYQGLPPAPAFGRFLTGEGEVIPLFPGIPG	not failed
MCGLAGWVDYTRKLDDEFPAIFAMTDTLALRGPDAEGIWKHRNALLGHRRLAVIDLSGGVQPMSYRFPTGQEVTLVYTGEVYNHDALRERLRRAGHEFRTRSDTEVVLHAYLQWGERCCEYLTGMFAFAVFDGRDGHLLLVRDRLGIKPLYYARHREGLLFGSEIKSILAHPEFAARLDAVGLVDLLTLSRGTSQTPFREVQELLPGHLLSWRPNSQAKLRRYWEVRRQEHADDLQSTVQRTRELVTRALGAQLHADVPVCSLLSGGLDSTALTGIAQRIAKAEHGGDINSFSVDFVGQAEQFRSDDLRPDQDQPFALLAAQYIGSRHRTVLIDNAELVCERAREEVFRAKDVPFTFGDMDTSLHLMFGEIRRHSTVAISGEGADELFGGYGWFRDPQAVAAARFPWASRVRLPAGFIDAGFNRRCDLLQYQQASYDDGLRQVEHLAGDSPEERRMREFSHLHLKRWMVLLLERKDRLSMCNGLEVRVPYTDHELVEYVYNVPWSIKSRDGEEKWLLKRACADYVPEAVLKRRKSPYPTSANLGYERFLRGSVRRLLEDAVNPVFGIVSREFLAAELEHPEGYFNTQVSRHNLETALALEGWLRLYGLS	failed
MAKNDRKEPYPVINILECKACGRCLLACPKDVLFMSENLNARGYHYIEYKGEGCSGCASCYYTCPEPLALEIHIPLKKEEAE	failed
MNRAFSRKKDKTWMHTPEALSKHFIPYNAKFLGSTEVEQPKGTEVVRDAVRKLKFARHIKKSEGQKIPKVELQISIYGVKILEPKTKEVQHNCQLHRISFCADDKTDKRIFTFICKDSESNKHLCYVFDSEKCVSIPDVVGWFVLFYKPGIVLLLALAKYLKMNNFL	failed
MSTHVTFDYSKALSFIGEHEITYLRDAVKVTHHAIHEKTGAGNDFLGWVDLPLQYDKEEFARIQKCAEKIKNDSDILLVVGIGGSYLGARAAIEMLNHSFYNTLSKEQRKTPQVLFVGQNISSTYMKDLMDVLEGKDFSINVISKSGTTTEPALAFRIFRKLLEEKYGKEEARKRIYATTDKARGALKTLADNEGYETFVIPDDVGGRFSVLTPVGLLPIAVSGLNIEEMMKGAAAGRDDFGTSELEENPAYQYAVVRNALYNKGKTIEMLINYEPALQYFAEWWKQLFGESEGKDQKGIFPSSANFSTDLHSLGQYVQEGRRDLFETVLKVGKSTHELTIESEENDLDGLNYLAGETVDFVNTKAYEGTLLAHSDGGVPNLIVNIPELNEYTFGYLVYFFEKACAMSGYLLGVNPFDQPGVEAYKKNMFALLGKPGFEELKAELEERLK	not failed
MRRLLFLSLAGLWLFSPAAAAQLPGLISQPLAGGGQSWSLSVQTLVFITSLTFLPAILLMMTSFTRIIIVFGLLRNALGTPSAPPNQVLLGLALFLTFFIMSPVIDKIYVDAYQPFSEQKISMQEALDKGAQPLRAFMLRQTREADLALFARLANSGPLQGPEAVPMRILLPAYVTSELKTAFQIGFTIFIPFLIIDLVIASVLMALGMMMVPPATIALPFKLMLFVLVDGWQLLMGSLAQSFYS	failed
